Test results reported in patent publication US20150259426A1 (Novartis, published 2015).

What was measured:
[1] = target: T1, cell-bound human DR5 (Colo205 and other human cell lines) (human, UniProt O14763 56-440); experiment: cell-based or functional assay
[2] = target: T1, cell-bound human DR5 (Colo205 and other …); experiment: cell-based or functional assay; remark: listed apart in the source
[3] = target: T2, hGITR (human, UniProt Q9Y5U5); experiment: ELISA, receptor ECD from E. coli lysate on His capture plate;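 further: binding specificity screen across TNF receptor superfamily ectodomains, anti-V5 detection as expression reference, primary antibody incubation 1 h at room temperature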
T2 construct: extracellular domain, E. coli lysate captured on a His capture plate; Target named only on the sheet; the construct is not described in the text
T2 sequence (extracellular domain, looked up): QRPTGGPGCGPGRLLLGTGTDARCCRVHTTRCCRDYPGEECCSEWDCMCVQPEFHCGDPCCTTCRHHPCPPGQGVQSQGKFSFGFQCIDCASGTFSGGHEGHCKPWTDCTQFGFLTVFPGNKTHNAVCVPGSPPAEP

[4] = target: T3, TNFR1 extracellular domain (TNFRSF1A, Leu34-Thr211) (UniProt P19438 34-211); experiment: as above
T3 construct: range 34-211; ECD cloned into pBadThioTopo; E. coli lysate on His capture plates
T3 sequence (looked up): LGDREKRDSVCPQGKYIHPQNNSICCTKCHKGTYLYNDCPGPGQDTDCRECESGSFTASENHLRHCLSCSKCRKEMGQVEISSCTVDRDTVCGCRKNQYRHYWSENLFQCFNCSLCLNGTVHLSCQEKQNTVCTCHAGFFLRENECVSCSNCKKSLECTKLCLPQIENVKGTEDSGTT

[5] = target: T4, TNFR3 extracellular domain (TNFRSF3, Pro30-Thr224) (UniProt P36941 30-224); experiment: as above
T4 construct: range 30-224; ECD cloned into pBadThioTopo; E. coli lysate on His capture plates
T4 sequence (P36941 30-224 limits assumed): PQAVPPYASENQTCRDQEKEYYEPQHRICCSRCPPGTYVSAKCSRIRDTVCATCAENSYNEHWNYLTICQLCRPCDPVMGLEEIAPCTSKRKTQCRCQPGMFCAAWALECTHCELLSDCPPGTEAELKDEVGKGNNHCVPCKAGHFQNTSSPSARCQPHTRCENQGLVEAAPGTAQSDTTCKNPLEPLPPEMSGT

[6] = target: T5, OX40 extracellular domain (TNFRSF4, Gly33-Gly212) (UniProt P43489 33-212); experiment: as above
T5 construct: ECD cloned into pBadThioTopo; E. coli lysate on His capture plates
T5 sequence (looked up): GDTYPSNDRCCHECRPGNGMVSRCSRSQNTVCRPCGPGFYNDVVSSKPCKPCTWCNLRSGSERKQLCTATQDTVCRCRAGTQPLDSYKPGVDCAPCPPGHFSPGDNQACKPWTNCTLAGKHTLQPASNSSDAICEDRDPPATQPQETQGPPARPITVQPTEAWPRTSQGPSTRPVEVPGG

[7] = target: T6, CD40 extracellular domain (TNFRSF5, Val18-Leu192) (UniProt P25942 18-192); experiment: as above
T6 construct: range 18-192; ECD cloned into pBadThioTopo; E. coli lysate on His capture plates
T6 sequence (P25942 18-192 limits assumed): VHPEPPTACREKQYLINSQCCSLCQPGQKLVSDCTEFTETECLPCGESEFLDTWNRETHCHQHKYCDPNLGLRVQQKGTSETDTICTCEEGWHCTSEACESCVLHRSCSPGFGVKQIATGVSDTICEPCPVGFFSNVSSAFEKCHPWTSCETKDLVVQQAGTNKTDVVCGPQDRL

[8] = target: T7, FAS extracellular domain (TNFRSF6, Ser20-Gly175) (UniProt P25445 20-175); experiment: as above
T7 construct: ECD cloned into pBadThioTopo; E. coli lysate on His capture plates
T7 sequence (looked up): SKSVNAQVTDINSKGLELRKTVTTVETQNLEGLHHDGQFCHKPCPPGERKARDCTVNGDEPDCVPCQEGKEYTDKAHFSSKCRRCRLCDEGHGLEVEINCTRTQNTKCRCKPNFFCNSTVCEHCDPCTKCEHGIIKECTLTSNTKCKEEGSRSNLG

[9] = target: T8, DcR3 (TNFRSF6B, Val27-Ala176) (UniProt O95407 27-176); experiment: as above
T8 construct: range 27-176; ECD cloned into pBadThioTopo; E. coli lysate on His capture plates
T8 sequence (looked up): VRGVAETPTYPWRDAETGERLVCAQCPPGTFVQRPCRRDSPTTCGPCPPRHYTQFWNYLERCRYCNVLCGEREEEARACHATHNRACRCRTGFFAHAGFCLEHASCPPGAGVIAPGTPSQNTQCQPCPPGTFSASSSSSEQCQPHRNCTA

[10] = target: T9, CD27 extracellular domain (TNFRSF7, Thr21-Ser187) (UniProt P26842 21-187); experiment: as above
T9 construct: range 21-187; ECD cloned into pBadThioTopo; E. coli lysate on His capture plates
T9 sequence (P26842 21-187 limits assumed): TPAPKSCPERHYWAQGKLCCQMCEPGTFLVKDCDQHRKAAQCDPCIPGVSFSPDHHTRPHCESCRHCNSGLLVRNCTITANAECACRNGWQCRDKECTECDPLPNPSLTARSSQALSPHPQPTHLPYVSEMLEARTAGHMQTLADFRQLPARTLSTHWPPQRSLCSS

[11] = target: T10, CD137 extracellular domain (TNFRSF9, Glu19-Ile188) (UniProt Q07011 19-188); experiment: as above
T10 construct: range 19-188; ECD cloned into pBadThioTopo; E. coli lysate on His capture plates
T10 sequence (Q07011 19-188 limits assumed): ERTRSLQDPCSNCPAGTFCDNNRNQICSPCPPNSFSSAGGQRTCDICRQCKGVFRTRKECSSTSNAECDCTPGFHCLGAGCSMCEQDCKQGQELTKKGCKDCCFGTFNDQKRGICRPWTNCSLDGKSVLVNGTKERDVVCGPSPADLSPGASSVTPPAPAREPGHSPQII

[12] = target: T11, DcR2 extracellular domain (TNFRSF10D, Thr57-Thr198) (UniProt Q9UBN6 57-198); experiment: as above
T11 construct: range 57-198; ECD cloned into pBadThioTopo; E. coli lysate on His capture plates
T11 sequence (looked up): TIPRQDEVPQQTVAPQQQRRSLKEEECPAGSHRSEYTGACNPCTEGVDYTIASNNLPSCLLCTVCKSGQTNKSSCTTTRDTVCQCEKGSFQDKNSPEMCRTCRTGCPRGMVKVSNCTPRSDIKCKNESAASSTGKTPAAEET

[13] = target: T12, OPG (TNFRSF11B, Lys17-Ile197) (UniProt O00300 17-197); experiment: as above
T12 construct: range 17-197; ECD cloned into pBadThioTopo; E. coli lysate on His capture plates
T12 sequence (looked up): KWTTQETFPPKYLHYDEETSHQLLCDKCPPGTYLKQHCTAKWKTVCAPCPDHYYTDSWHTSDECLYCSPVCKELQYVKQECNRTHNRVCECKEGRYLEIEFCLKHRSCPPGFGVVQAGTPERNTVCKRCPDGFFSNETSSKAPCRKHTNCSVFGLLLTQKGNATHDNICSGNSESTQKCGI

[14] = target: T13, BAFFR extracellular domain (TNFRSF13C, Met1-Gly64) (UniProt Q96RJ3 1-64); experiment: as above
T13 construct: range 1-64; ECD cloned into pBadThioTopo; E. coli lysate on His capture plates
T13 sequence (Q96RJ3 1-64 limits assumed): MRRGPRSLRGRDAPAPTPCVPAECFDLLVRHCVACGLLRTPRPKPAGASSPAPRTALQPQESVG

[15] = target: cynomolgus DR5-Fc fusion protein (cyno DR5 amino acids 56 to 213 fused with human IgG1 Fc) (cynomolgus; human); experiment: SPR (Biacore), CM5 chip coated with cynomolgus DR5-Fc, 1 to 100 nM NB construct

B1: 7A12 tri (trivalent anti-DR5 NB construct) (VHH)
chain: EVQLVESGGGLVQAGGSLRLSCAASGRTFSNYAMGWFRQAPGKEREFVAALNWSGGSTYYVDSVKGRFTISRDNAKNTVYLQMNSLKPEDTAVYYCAAAGSFSLGGRPYGDDYWGKGTLVTVSSGGGGSGGGGSGGGGSGGGGSGGGGSGGGGSGGGGSEVQLVESGGGLVQAGGSLRLSCAASGRTFSNYAMGWFRQAPGKEREFVAALNWSGGSTYYVDSVKGRFTISRDNAKNTVYLQMNSLKPEDTAVYYCAAAGSFSLGGRPYGDDYWGKGTLVTVSSGGGGSGGGGSGGGGSGGGGSGGGGSGGGGSGGGGSEVQLVESGGGLVQAGGSLRLSCAASGRTFSNYAMGWFRQAPGKEREFVAALNWSGGSTYYVDSVKGRFTISRDNAKNTVYLQMNSLKPEDTAVYYCAAAGSFSLGGRPYGDDYWGKGTLVTVSS
notes: three VHH units in one chain joined by GlySer linkers; not shown: CMYC-HIS6 tag
[1]
  IC50, cell survival, Colo205: 0.12 nM
[2]
  IC50, cell survival, A549: ≥ 20 nM
  IC50, cell survival, ARPE-19: ≥ 20 nM
  IC50, cell survival, H226: 0.03 nM
  IC50, cell survival, H2052: 0.064 nM
  IC50, cell survival, H2122: 0.008 nM
  IC50, cell survival, Huvec: ≥ 20 nM
  IC50, cell survival, IMR-90: ≥ 20 nM
  IC50, cell survival, Jurkat: ≥ 20 nM
  IC50, cell survival, M30: ≥ 20 nM
  IC50, cell survival, MiaPaCa-2: ≥ 20 nM
  IC50, cell survival, Molt4: ≥ 20 nM
  IC50, cell survival, Panc-1: ≥ 20 nM
[3]
  binding result: no binding (tested: not stated)
[4]
  binding result: no binding (tested: not stated)
[5]
  binding result: no binding (tested: not stated)
[6]
  binding result: no binding (tested: not stated)
[7]
  binding result: no binding (tested: not stated)
[8]
  binding result: no binding (tested: not stated)
[9]
  binding result: no binding (tested: not stated)
[10]
  binding result: no binding (tested: not stated)
[11]
  binding result: no binding (tested: not stated)
[12]
  binding result: no binding (tested: not stated)
[13]
  binding result: no binding (tested: not stated)
[14]
  binding result: no binding (tested: not stated)
[15]
  Kd: < 0.03 nM

B2: 11D1 tri (trivalent anti-DR5 NB construct) (VHH)
chain: EVQLVESGGGLVQPGGSLRLSCAASGSIDSINNMGWYRQAPGKQRELVAEITPRGRTNYADSEKSRFTISRDNAKRTVNLQMNSLKPEDTAVYYCNAEVRERGTSWYRPDYWGQGTQVTVSSGGGGSGGGGSGGGGSGGGGSGGGGSGGGGSGGGGSEVQLVESGGGLVQPGGSLRLSCAASGSIDSINNMGWYRQAPGKQRELVAEITPRGRTNYADSEKSRFTISRDNAKRTVNLQMNSLKPEDTAVYYCNAEVRERGTSWYRPDYWGQGTQVTVSSGGGGSGGGGSGGGGSGGGGSGGGGSGGGGSGGGGSEVQLVESGGGLVQPGGSLRLSCAASGSIDSINNMGWYRQAPGKQRELVAEITPRGRTNYADSEKSRFTISRDNAKRTVNLQMNSLKPEDTAVYYCNAEVRERGTSWYRPDYWGQGTQVTVSS
notes: as for B1
[1]
  IC50, cell survival, Colo205: 0.111 nM
[2]
  IC50, cell survival, A549: ≥ 20 nM
  IC50, cell survival, ARPE-19: ≥ 20 nM
  IC50, cell survival, H226: 0.03 nM
  IC50, cell survival, H2052: 0.015 nM
  IC50, cell survival, H2122: 0.004 nM
  IC50, cell survival, Huvec: ≥ 20 nM
  IC50, cell survival, IMR-90: ≥ 20 nM
  IC50, cell survival, Jurkat: ≥ 20 nM
  IC50, cell survival, M30: ≥ 20 nM
  IC50, cell survival, MiaPaCa-2: ≥ 20 nM
  IC50, cell survival, Molt4: ≥ 20 nM
  IC50, cell survival, Panc-1: ≥ 20 nM
[3]
  binding result: no binding (tested: not stated)
[4]
  binding result: no binding (tested: not stated)
[5]
  binding result: no binding (tested: not stated)
[6]
  binding result: no binding (tested: not stated)
[7]
  binding result: no binding (tested: not stated)
[8]
  binding result: no binding (tested: not stated)
[9]
  binding result: no binding (tested: not stated)
[10]
  binding result: no binding (tested: not stated)
[11]
  binding result: no binding (tested: not stated)
[12]
  binding result: no binding (tested: not stated)
[13]
  binding result: no binding (tested: not stated)
[14]
  binding result: no binding (tested: not stated)
[15]
  Kd: < 0.2 nM
